Residue numbers refer to the chain shown, from its start.
B1: CFP0018 (antibody, V domains shown)
VH: QVQLVQSGAEVKKPGSSVKVSCKASGGTFSSYAISWVRQAPGQGLEWMGGIIPIFGTANYAQKFQGRVTITADESTSTAYMELSSLRSEDTAVYYCARQLYGYYELDIWGQGTLVTVSS
VL: DIQMTQSPSSLSASVGDRVTITCRASQSISDDLAWYQQKPGKAPKLLIYEASSLQSGVPSRFSGSGSGTDFTLTISSLQPEDFATYYCQQYNSYPLTFGQGTKVEIK
notes: IgG format
B2: CFP0017 (antibody, V domains shown)
VH: B1 VH with Q99G, L100G, Y101W, G102W, Y103G, Y104G, E105A, I108Y
VL: B1 VL with S30E, E50H, Y91S, N92D
notes: IgG format
B3: CFP0017 17L 30S (antibody, V domains shown)
VH: B1 VH with Q99G, L100G, Y101W, G102W, Y103G, Y104G, E105A, I108Y
VL: B1 VL with E50H, Y91S, N92D
B4: CFP0017 17L 91H (antibody, V domains shown)
VH: B1 VH with Q99G, L100G, Y101W, G102W, Y103G, Y104G, E105A, I108Y
VL: B1 VL with S30E, E50H, Y91H, N92D
B5: CFP0017 17L 30A (antibody, V domains shown)
VH: B1 VH with Q99G, L100G, Y101W, G102W, Y103G, Y104G, E105A, I108Y
VL: B1 VL with S30A, E50H, Y91S, N92D
B6: CFP0018 18L 31N (antibody, V domains shown)
VH: B1 VH
VL: B1 VL with D31N
B7: CFP0018 18L 53H (antibody, V domains shown)
VH: B1 VH
VL: B1 VL with S53H
B8: CFP0018 18L 30H (antibody, V domains shown)
VH: B1 VH
VL: B1 VL with S30H
B9: CFP0018 18L 94F (antibody, V domains shown)
VH: B1 VH
VL: B1 VL with Y94F
B10: CFP0018 18L 96F (antibody, V domains shown)
VH: B1 VH
VL: B1 VL with L96F
B11: CFP0018 18L 92S (antibody, V domains shown)
VH: B1 VH
VL: B1 VL with N92S
B12: CFP0017 17L 30H (antibody, V domains shown)
VH: B1 VH with Q99G, L100G, Y101W, G102W, Y103G, Y104G, E105A, I108Y
VL: B1 VL with S30H, E50H, Y91S, N92D
B13: CFP0017 17L 30D (antibody, V domains shown)
VH: B1 VH with Q99G, L100G, Y101W, G102W, Y103G, Y104G, E105A, I108Y
VL: B1 VL with S30D, E50H, Y91S, N92D
B14: CFP0017 17L 92S (antibody, V domains shown)
VH: B1 VH with Q99G, L100G, Y101W, G102W, Y103G, Y104G, E105A, I108Y
VL: B1 VL with S30E, E50H, Y91S, N92S
B15: CFP0018 18L 30E (antibody, V domains shown)
VH: B1 VH
VL: B1 VL with S30E
B16: CFP0018 18L 53N (antibody, V domains shown)
VH: B1 VH
VL: B1 VL with S53N
B17: CFP0018 18L 96H (antibody, V domains shown)
VH: B1 VH
VL: B1 VL with L96H
B18: CFP0018 18L 92P (antibody, V domains shown)
VH: B1 VH
VL: B1 VL with N92P
B19: CFP0017 17L 50E (antibody, V domains shown)
VH: B1 VH with Q99G, L100G, Y101W, G102W, Y103G, Y104G, E105A, I108Y
VL: B1 VL with S30E, Y91S, N92D
B20: CFP0018 18L 92T (antibody, V domains shown)
VH: B1 VH
VL: B1 VL with N92T
B21: CFP0018 18L 30F (antibody, V domains shown)
VH: B1 VH
VL: B1 VL with S30F
B22: CFP0018 18L 30D (antibody, V domains shown)
VH: B1 VH
VL: B1 VL with S30D
B23: CFP0018 18L 92E (antibody, V domains shown)
VH: B1 VH
VL: B1 VL with N92E
B24: CFP0018 18L 30T (antibody, V domains shown)
VH: B1 VH
VL: B1 VL with S30T
B25: CFP0018 18L 30P (antibody, V domains shown)
VH: B1 VH
VL: B1 VL with S30P
B26: CFP0018 18L 30A (antibody, V domains shown)
VH: B1 VH
VL: B1 VL with S30A
B27: CFP0018 18L 92D (antibody, V domains shown)
VH: B1 VH
VL: B1 VL with N92D
B28: CFP0018 18L 93D (antibody, V domains shown)
VH: B1 VH
VL: B1 VL with S93D
B29: CFP0018 18L 93R (antibody, V domains shown)
VH: B1 VH
VL: B1 VL with S93R
B30: CFP0018 18L 50D (antibody, V domains shown)
VH: B1 VH
VL: B1 VL with E50D
B31: CFP0018 18L 93N (antibody, V domains shown)
VH: B1 VH
VL: B1 VL with S93N
B32: CFP0017 17L 50A (antibody, V domains shown)
VH: B1 VH with Q99G, L100G, Y101W, G102W, Y103G, Y104G, E105A, I108Y
VL: B1 VL with S30E, E50A, Y91S, N92D
B33: CFP0018 18L 94W (antibody, V domains shown)
VH: B1 VH
VL: B1 VL with Y94W
B34: CFP0017 17L 91R (antibody, V domains shown)
VH: B1 VH with Q99G, L100G, Y101W, G102W, Y103G, Y104G, E105A, I108Y
VL: B1 VL with S30E, E50H, Y91R, N92D
B35: CFP0018 18L 53T (antibody, V domains shown)
VH: B1 VH
VL: B1 VL with S53T
B36: CFP0018 18L 92Q (antibody, V domains shown)
VH: B1 VH
VL: B1 VL with N92Q
B37: CFP0018 18L 32Q (antibody, V domains shown)
VH: B1 VH
VL: B1 VL with D32Q
B38: CFP0018 18L 94H (antibody, V domains shown)
VH: B1 VH
VL: B1 VL with Y94H
B39: CFP0018 18L 93G (antibody, V domains shown)
VH: B1 VH
VL: B1 VL with S93G
B40: CFP0018 18L 96I (antibody, V domains shown)
VH: B1 VH
VL: B1 VL with L96I
B41: CFP0018 18L 32N (antibody, V domains shown)
VH: B1 VH
VL: B1 VL with D32N
B42: CFP0017 17L 92N (antibody, V domains shown)
VH: B1 VH with Q99G, L100G, Y101W, G102W, Y103G, Y104G, E105A, I108Y
VL: B1 VL with S30E, E50H, Y91S
B43: CFP0018 18L 30N (antibody, V domains shown)
VH: B1 VH
VL: B1 VL with S30N
B44: CFP0018 18L 30Q (antibody, V domains shown)
VH: B1 VH
VL: B1 VL with S30Q
B45: CFP0017 17L 91Y (antibody, V domains shown)
VH: B1 VH with Q99G, L100G, Y101W, G102W, Y103G, Y104G, E105A, I108Y
VL: B1 VL with S30E, E50H, N92D
B46: CFP0018 18L 30Y (antibody, V domains shown)
VH: B1 VH
VL: B1 VL with S30Y

target: T1, human C5 (human, UniProt P01031 19-673; P01031 678-1676, Beta and alpha chains are disulfide-linked and the protein is glycosylated.); assay: Biacore, captured antibody, pH 7.4, 37 C;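 further: biacore binding response of anti-C5 antibody light chain variants captured on chip with human C5 injected, ACES running buffer containing 1.2 mM CaCl₂, parent light chain antibody set to 100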
T1 construct: Either in-house recombinant C5 or plasma derived C5 (CALBIOCHEM) was used; also called recombinant human C5; plasma derived human C5
Description: The light chain variants were tested for the binding affinity to C5 at pH 7.4 and at 37 degrees C. using Biacore T200 instrument (GE Healthcare) or Biacore 4000 instrument (GE Healthcare). […] Anti-C5 antibodies were captured on an immobilized molecule, and then human C5 was injected. The running buffer used was pH 7.4 ACES Buffer containing 1.2 mM Ca (20 mM ACES, 150 mM NaCl, 1.2 mM CaCl₂, 0.05% Tween 20). A value, % binding, was determined by normalizing binding response with that of antibody comprising parent light chain as 100.

B1 and B2 are the same in “% binding (parent = 100)” value: 100% for the first, 100% for the second.

First: B3
Second: B4
The “% binding (parent = 100)” value of the first is higher: 79.1% for the first, 21.8% for the second.

Going from B5 to B6, the “% binding (parent = 100)” value rises from 79.9% to 130%.

Compared with B7, B8 is lower in “% binding (parent = 100)” value: 94.4% for the first, 87.2% for the second.

Going from B9 to B10, the “% binding (parent = 100)” value rises from 28.6% to 31.8%.

First: B11
Second: B12
The “% binding (parent = 100)” value of the first is higher: 104% for the first, 52.1% for the second.

Compared with B13, B14 is lower in “% binding (parent = 100)” value: 89.4% for the first, 79% for the second.

Compared with B15, B16 is higher in “% binding (parent = 100)” value: 20.8% for the first, 91.2% for the second.

First: B17
Second: B18
The “% binding (parent = 100)” value of the first is higher: 114% for the first, 64.5% for the second.

Going from B19 to B20, the “% binding (parent = 100)” value rises from 1% to 95.1%.

First: B21
Second: B22
The “% binding (parent = 100)” value of the first is higher: 85.2% for the first, 17% for the second.

Compared with B23, B24 is higher in “% binding (parent = 100)” value: 40.9% for the first, 90.7% for the second.

Compared with B25, B26 is lower in “% binding (parent = 100)” value: 111% for the first, 21.2% for the second.

Going from B27 to B28, the “% binding (parent = 100)” value falls from 31.7% to 23.8%.

Compared with B29, B30 is lower in “% binding (parent = 100)” value: 136% for the first, 22.2% for the second.

Going from B31 to B32, the “% binding (parent = 100)” value falls from 107% to 3.3%.

First: B33
Second: B34
The “% binding (parent = 100)” value of the first is higher: 33.7% for the first, -4% for the second.

Going from B35 to B36, the “% binding (parent = 100)” value rises from 44.5% to 125%.

Compared with B37, B38 is lower in “% binding (parent = 100)” value: 21.9% for the first, 17.6% for the second.

Going from B39 to B40, the “% binding (parent = 100)” value falls from 79.1% to 56%.

Going from B41 to B42, the “% binding (parent = 100)” value falls from 527% to 36.4%.

Going from B43 to B44, the “% binding (parent = 100)” value falls from 201% to 130%.

Going from B45 to B46, the “% binding (parent = 100)” value rises from 0.3% to 82.4%.

From patent US20180016327A1 (Chugai, published 2018)
